The record followed here is PMC2615086 (The Journal of Cell Biology, 2009).

By Kd is commonly meant the concentration at which binding is half-saturated.

For this test, the target named is T1, Fic1-His6 (S. pombe, UniProt O94701 1-272).
T1 sequence: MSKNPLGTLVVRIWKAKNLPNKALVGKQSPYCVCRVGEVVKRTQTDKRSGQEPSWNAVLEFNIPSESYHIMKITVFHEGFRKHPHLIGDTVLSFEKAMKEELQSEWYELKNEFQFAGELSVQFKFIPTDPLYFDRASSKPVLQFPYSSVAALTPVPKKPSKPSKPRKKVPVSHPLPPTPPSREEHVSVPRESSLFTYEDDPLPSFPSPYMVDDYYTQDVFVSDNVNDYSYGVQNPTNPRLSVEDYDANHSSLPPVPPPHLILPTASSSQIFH
Description: quantitative in vitro binding.

B1: MBP-Cdc15SH3 (domain or fragment)
chain: SSMSLYGEYNKSQPQLSMQRSVSPNPLGPNRRSSSVLQSQKSTSSNTSNRNNGGYSGSRPSSEMGHRYGSMSGRSMRQVSQRSTSRARSPEPTNRNSVQSKNVDPRATFTAEGEPILGYVIALYDYQAQIPEEISFQKGDTLMVLRTQEDGWWDGEIINVPNSKRGLFPSNFVQTV
In the case of B1, the Kd was approximately 3000 nM.
